In patent US20240150489A1 (ICHNOS SCIENCES, published 2024):
Residue numbers refer to the chain shown, from its start. Names and notes keep the numbering of the source.

Experiments:
Human FcyRI [1] = target: T1, Human FcyRI (human, UniProt P12314 16-288, limits assumed); test: SPR; reference trastuzumab
T1 construct: also called FcγRIa

Human FcyRIIA [2] = target: T2, Human FcyRIIA (human, UniProt P12318 34-208, limits assumed); test: SPR; reference trastuzumab
T2 construct: also called FcγRIIa
T2 chain: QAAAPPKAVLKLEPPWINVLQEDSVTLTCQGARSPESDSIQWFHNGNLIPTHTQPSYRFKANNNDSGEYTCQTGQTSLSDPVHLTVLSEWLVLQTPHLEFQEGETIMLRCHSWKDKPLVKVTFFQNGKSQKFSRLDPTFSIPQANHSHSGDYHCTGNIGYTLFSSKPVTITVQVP

Human FcyRIIB [3] = target: T3, Human FcyRIIB (human, UniProt P31994 46-217, limits assumed); test: SPR; reference trastuzumab
T3 construct: also called FcγRIIb
T3 sequence (looked up): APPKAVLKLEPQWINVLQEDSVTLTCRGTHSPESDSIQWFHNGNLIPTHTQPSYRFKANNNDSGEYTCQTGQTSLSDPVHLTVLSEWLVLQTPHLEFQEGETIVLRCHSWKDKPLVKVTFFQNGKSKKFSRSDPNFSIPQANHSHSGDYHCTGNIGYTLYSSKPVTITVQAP

Human FcyRIIIA [4] = target: T4, Human FcyRIIIA (human, UniProt P08637 17-193, limits assumed); test: SPR; reference trastuzumab
T4 construct: also called FcγRIIIa

Human FcyRIIA [5] = target: T2, Human FcyRIIA; test: SPR, antibody on Protein G chip, steady state
Human FcyRIIB [6] = target: T3, Human FcyRIIB; test: SPR, antibody on Protein G chip, steady state
Human FcyRIIIA [7] = target: T4, Human FcyRIIIA; test: SPR, antibody on Protein G chip, steady state
Human FcyRI [8] = target: T1, Human FcyRI; test: SPR, antibody on Protein G chip, 1:1 binding model
Human FcRn = target: T5, Human FcRn (human, UniProt P55899 24-297, limits assumed); test: SPR, antibody on Protein L chip, steady state, pH 6.0
T5 construct: Measured at pH 6.0; also called human FcRn receptor

[9] = target: T6, human FcRn-ECD-Avi-His / B2M complex (human, UniProt P61769 21-119); test: SPR steady state, antibody captured with Human Fab Capture kit, FcRn analyte; reference trastuzumab control IgG1
T6 construct: B2M was cloned full length with its native leader; The alternative SPR method for BEAT CD38/CD47-60 says only 'FcRn' as analyte; the tie to the in-house complex is inferred; also called human FcRn/B2M complex

[10] = target: T7, CD38 on cells (Daudi, Raji, KMS-12-PE, NCI-H929, KMS-12-BM) (human, UniProt P28907); test: flow cytometry on Raji cells (carry CD38 and CD47), anti-human IgG-Fc PE, GeoMFI; apparent whole-cell value, the anti-CD47 arm also binds
T7 construct: full-length, cell surface; These cells also carry CD47

[11] = target: T7, CD38 on cells (Daudi, Raji, KMS-12-PE, …); test: flow cytometry on Daudi cells (carry CD38 and CD47), anti-human IgG-Fc PE, GeoMFI; apparent whole-cell value, the anti-CD47 arm also binds
[12] = target: T7, CD38 on cells (Daudi, Raji, KMS-12-PE, …); test: flow cytometry on NCI-H929 cells (carry CD38 and CD47), anti-human IgG-Fc PE, GeoMFI; apparent whole-cell value, the anti-CD47 arm also binds
[13] = target: T7, CD38 on cells (Daudi, Raji, KMS-12-PE, …); test: flow cytometry on KMS-12-PE cells (carry CD38 and CD47), anti-human IgG-Fc PE, GeoMFI; apparent whole-cell value, the anti-CD47 arm also binds
[14] = target: T7, CD38 on cells (Daudi, Raji, KMS-12-PE, …); test: flow cytometry on KMS-12-BM cells (carry CD38 and CD47), anti-human IgG-Fc PE, GeoMFI; apparent whole-cell value, the anti-CD47 arm also binds
[15] = target: T8, CD47 on cells (Daudi cells; human red blood cells) (human, UniProt Q08722 19-323); test: blocking of SIRPα-mIgG1 Fc binding to CD47 on Daudi cells, image-based readout with anti-mouse IgG Fc Alexa Fluor 647, % inhibition; the sheet calls the half-maximal value EC50
T8 construct: whole, on cells; These cells also carry CD38

human CD47-ECD-Avi-His [16] = target: T9, human CD47-ECD-Avi-His (human); test: SPR, CD47 amine-coupled, Fab analyte, 1:1 fit
T9 construct: also called recombinant human CD47-avi-his protein; recombinant human CD47 protein

[17] = target: T10, cynomolgus CD47-ECD-Avi-His (cynomolgus monkey); test: SPR, CD47 amine-coupled, Fab analyte, 1:1 fit
T10 construct: also called recombinant cynomolgus monkey CD47-avi-his protein
T10 chain: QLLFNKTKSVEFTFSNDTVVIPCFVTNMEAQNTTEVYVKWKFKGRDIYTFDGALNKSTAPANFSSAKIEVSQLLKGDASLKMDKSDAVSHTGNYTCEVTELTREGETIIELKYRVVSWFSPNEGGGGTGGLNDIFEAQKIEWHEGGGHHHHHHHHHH

human CD47-ECD-Avi-His [18] = target: T9, human CD47-ECD-Avi-His; test: SPR; human CD47; value given in the text of paragraph 230
[19] = target: T10, cynomolgus CD47-ECD-Avi-His; test: SPR; cynomolgus monkey CD47; value given in the text of paragraph 230
[20] = target: Avi-Tagged FcγRIa (Acrobiosystems, FCA-H82E8) (UniProt P12314 16-288, biotinylated (captured with Biotin CAPture kit)); test: SPR, FcγRIa captured on CAP chip, antibody analyte; reference trastuzumab control IgG1
[21] = target: T11, Avi-Tagged FcRn (Acrobiosystems, FCM-H82W2) (human, UniProt P55899 24-297, biotinylated (captured with Biotin CAPture kit)); test: SPR steady state, FcRn captured on CAP chip, antibody analyte; reference trastuzumab control IgG1
T11 construct: also called human neonatal Fc receptor

human FcγR2a-ECD-His = target: T12, human FcγR2a-ECD-His (human, UniProt P12318 34-208); test: SPR steady state, antibody on protein G chip, receptor analyte; reference trastuzumab control IgG1
T12 construct: His-tagged fusion made in house (UniProt P12318); The SPR method names only 'Fc-receptors IIa, IIb, and IIIa'; also called FcγRIIa; Fc-receptor IIa
T12 chain: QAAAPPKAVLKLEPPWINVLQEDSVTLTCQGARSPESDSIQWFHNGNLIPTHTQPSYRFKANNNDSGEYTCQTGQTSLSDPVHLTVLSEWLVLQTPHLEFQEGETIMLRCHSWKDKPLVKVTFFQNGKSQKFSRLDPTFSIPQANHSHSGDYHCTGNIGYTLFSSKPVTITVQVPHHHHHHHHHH

human FcγR2b-ECD-His = target: T13, human FcγR2b-ECD-His (human, UniProt P31994 46-217); test: as above
T13 construct: His-tagged fusion made in house (UniProt P31994); also called FcγRIIb; Fc-receptor IIb
T13 sequence: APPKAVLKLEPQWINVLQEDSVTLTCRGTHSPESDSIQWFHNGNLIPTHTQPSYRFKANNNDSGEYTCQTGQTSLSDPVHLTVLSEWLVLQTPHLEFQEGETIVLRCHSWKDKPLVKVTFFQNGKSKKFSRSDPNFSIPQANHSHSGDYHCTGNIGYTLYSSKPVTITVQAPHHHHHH

human FcγR3a-ECD-His = target: T14, human FcγR3a-ECD-His (human, UniProt P08637 17-193); test: as above
T14 construct: His-tagged fusion made in house (UniProt P08637); also called FcγRIIIa; Fc-receptor IIIa

[22] = target: T15, recombinant biotinylated human CD38 Avitag, His Tag (Acrobiosystems, CD8-H82E7) (human, UniProt P28907 43-300, biotinylated (Avitag)); test: SPR, biotinylated CD38 captured, Fab analyte, 1:1 fit;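 also: biacore T200 at 25 °C, single-cycle kinetics with Fab injected at 7.8–2000 nM for 3 min, dissociation followed 5 min, reference flow path subtracted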
T15 construct: Bought protein; also called biotinylated human CD38-avi-his protein; biotinylated recombinant human CD38 protein

[23] = target: T16, recombinant cynomolgus monkey CD38-ECD-C-his (cynomolgus monkey, UniProt Q5VAN0 45-301); test: SPR, His-captured cyno CD38, Fab analyte; NB = no detectable binding
T16 construct: Extracellular region fused to 6-His; also called cyno CD38-C-His; recombinant cynomolgus monkey CD38 protein

B1: BEAT CD38/CD47-60 (bispecific antibody, human IgG1, kappa)
heavy 1: EVQLVESGGGLIQPGGSLRLSCAASGFTLSRNTMHWVRQAPGKGLEWVSVIYQSGVTRYADSVKSRFTISRDNSKNTLYLQMNSLRAEDTAVYYCARGRYGVAGGPGYAFDVWGQGTLVTVSSASTKGPSVFPLAPSSKSTSGGTAALGCLVKDYFPEPVTVSWNSGALTSGVHTFPAVLQSSGLYSLSSVVTVPSSSLGTQTYICNVNHKPSNTKVDKKVEPKSCDKTHTCPPCPAPELLGGPDVFLFPPKPKDTLMISRTPEVTCVVVDVSHEDPEVKFNWYVDGVEVHNAKTKPREEQYNSTYRVVSVLTVLHQDWLNGKEYKCKVNNKALPAPEEKTISKAKGQPREPAVYTLPPSREEMTKNQVKLVCLVTGFYPSDIAVEWESSGQPENNYYTTPPMLDSDGSFSLVSWLNVDKSRWQQGNIFSCSVMHEALHNRFTQKSLSLSPG
heavy 2: not shown
light: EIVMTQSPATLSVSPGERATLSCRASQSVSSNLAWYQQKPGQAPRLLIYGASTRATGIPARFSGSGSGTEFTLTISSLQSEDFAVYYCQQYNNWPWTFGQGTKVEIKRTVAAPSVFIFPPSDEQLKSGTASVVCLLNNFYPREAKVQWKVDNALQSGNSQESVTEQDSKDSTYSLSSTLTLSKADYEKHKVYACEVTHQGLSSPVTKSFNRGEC
notes: 2+1 biparatopic format; BEAT (A): S239D + I332E + S324N, BEAT (B): S324N; also called BEAT CD38/47-60; BEAT 38/47-60
fold enhancement BEAT CD38/47-60 over trastuzumab (Human FcyRI [1]): 2.6 fold
fold enhancement BEAT CD38/47-60 over trastuzumab (Human FcyRIIA [2]): 4.4 fold
fold enhancement BEAT CD38/47-60 over trastuzumab (Human FcyRIIB [3]): 6.7 fold
fold enhancement BEAT CD38/47-60 over trastuzumab (Human FcyRIIIA [4]): 5.6 fold
Kd (Human FcyRIIA [5]): 110 nM
Kd (Human FcyRIIB [6]): 306 nM
Kd (Human FcyRIIIA [7]): 15.1 nM
Kd (Human FcyRI [8]): 0.07 nM
Kd (Human FcRn): 418 nM
KD ratio [BEAT/Control IgG1] [9]: 0.5 ratio
EC50 (read off the curve) [10]: ~4 nM
EC50 (read off the curve) [11]: ~4 nM
EC50 (read off the curve) [12]: ~8 nM
EC50 (read off the curve) [13]: ~3 nM
EC50 (read off the curve) [14]: ~30 nM
IC50 (read off the curve) [15]: ~0.03 nM

B2: anti-CD47-UCP01-H2 FAB (Fab, V domains shown)
VH: EVQLVESGGGLIQPGGSLRLSCAASGFTLSRNTMHWVRQAPGKGLEWVSVIYQSGVTRYADSVKGRFTISRDNSKNTLYLQMNSLRAEDTAVYYCARGRYGVAGGPGYAFDVWGQGTLVTVSS
VL: not shown
notes: human IgG1 Fab; also called anti-CD47-H2; anti-CD47-H2 Fab
Kd (human CD47-ECD-Avi-His [16]): 878 nM
Kd [17]: 939 nM
Kd (human CD47-ECD-Avi-His [18]): 104 nM
Kd [19]: 142 nM

B3: BEAT CD38/CD47-21 (bispecific antibody, human IgG1, kappa)
heavy 1: B1 heavy 1 with D245S, E338I, K340E
heavy 2: QVQLVQSGAEVKKPGSSVKVSCKASGLPDATYAIGWVRQAPGQGLEWMGRIIPRLDAEHYAQKFQGRVTITADESTSTAYMELSSLRSEDTAVYYCARGLGYYLYSSYYFDIWGQGTLVTVSSASTKGPSVFPLAPSSKSTSGGTAALGCLVKDYFPEPVTVSWNSGALTSGVHTFPAVLQSSGLYSLSSVVTVPSSSLGTQTYICNVNHKPSNTKVDKKVEPKSCDKTHTCPPCPAPELLGGPSVFLFPPKPKDTLMISRTPEVTCVVVDVSHEDPEVKFNWYVDGVEVHNAKTKPREEQYNSTYRVVSVLTVLHQDWLNGKEYKCKVNNKALPAPIEETISKAKGQPREPEVATFPPSRDELTKNQVTLVCLVTGFYPSDIAVEWESNGQPENNYKTDPPLLESQGSFALSSRLRVDKSRWQQGNVFSCSVMHEALHNHYTQKSLSLSPG
light: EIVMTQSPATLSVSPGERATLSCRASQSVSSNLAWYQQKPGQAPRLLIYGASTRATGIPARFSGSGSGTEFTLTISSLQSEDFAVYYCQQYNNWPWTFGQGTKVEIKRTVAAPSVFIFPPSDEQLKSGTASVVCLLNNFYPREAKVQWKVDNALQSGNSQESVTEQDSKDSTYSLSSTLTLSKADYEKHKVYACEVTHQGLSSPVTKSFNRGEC
notes: 1+1 format; Fc mutations S324N + K334E in both heavy chains
fold gain in affinity vs control [20]: 1030 fold
KD ratio [BEAT/Control IgG1] [21]: 0.4 ratio
fold gain in affinity vs control (human FcγR2a-ECD-His): 1 fold
fold gain in affinity vs control (human FcγR2b-ECD-His): 0.1 fold
fold gain in affinity vs control (human FcγR3a-ECD-His): 2 fold

B4: BEAT CD38/CD47-42 (bispecific antibody, human IgG1, kappa)
heavy 1: B1 heavy 1
heavy 2: B3 heavy 2 with E340K
light: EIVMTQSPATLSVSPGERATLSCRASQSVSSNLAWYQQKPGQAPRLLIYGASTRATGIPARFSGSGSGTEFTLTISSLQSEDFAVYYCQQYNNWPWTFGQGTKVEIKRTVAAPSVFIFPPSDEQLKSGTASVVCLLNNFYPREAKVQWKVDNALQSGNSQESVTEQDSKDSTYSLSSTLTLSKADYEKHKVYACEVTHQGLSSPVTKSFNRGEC
notes: 1+1 format; BEAT (A): S239D + I332E + S324N, BEAT (B): S324N
fold gain in affinity vs control [20]: 3750 fold
KD ratio [BEAT/Control IgG1] [21]: 0.5 ratio
fold gain in affinity vs control (human FcγR2a-ECD-His): 6 fold
fold gain in affinity vs control (human FcγR2b-ECD-His): 14 fold
fold gain in affinity vs control (human FcγR3a-ECD-His): 11 fold

B5: Anti-CD38-UCP01-D1 Fab (Fab, V domains shown)
VH: QVQLVQSGAEVKKPGSSVKVSCKASGGIFNGYLISWVRQAPGQGLEWMGGIIPVNGLADYAQKFQGRVTITADESTSTAYMELSSLRSEDTAVYYCARTIGRYIIAFDYWGQGTLVTVSS
VL: not shown
notes: human IgG1 Fab
Kd [22]: 666 nM
binding result [23]: no binding (tested: 2000 nM)
